From paper PMC6934455, “Molecular Dynamics model of peptide-protein conjugation: case study of covalent complex between Sos1 peptide and N-terminal SH3 domain from Grb2” (Scientific Reports, 2019)
Read-outs that look alike come from different tables or passages of the source.

What was measured:
[1] = biological target: Sos1-X′ peptide (Homo sapiens); assay: NMR
[2] = biological target: Sos1-X′ peptide (Homo sapiens); assay: NMR; remark: listed apart in the source

B1: Grb2 N-SH3 2-59, P62993 (protein)
chain: EAIAKYDFKATADDELSFKRGDILKVLNEESDQNWYKAELNGKDGFIPKNYIEMKPHP
Kd [1]: 4.9 µM | Kd [2]: 4.6 µM
